Assay results from publication PMC3197789.

Assays:
[1] = test system: 7HC-STAT3beta, Src-phosphorylated (pY705); experiment: EMSA with unlabelled hSIE competition; settings: not given in the material (Supporting Information not held)
[2] = test system: wt STAT3beta, Src-phosphorylated (pY705); experiment: EMSA with unlabelled hSIE competition; settings: not given in the material (Supporting Information not held)

hSIE (high-affinity sis-inducible element) probe
Kd [1]: 6.8 nM
Kd [2]: 6.3 nM
